Data on 1 protein can be found in article PMC2265111 (The EMBO Journal, 2008).

The data set deals with the molecule itself. The data set is described as follows: crystal structure.

B1: Rap1GAP Q204A (75–415) (domain or fragment)
chain: not shown
Consider B1, for which the stoichiometry N (usually the number of molecules, sites or subunits per partner or assembly) was 2.
